Data reported in patent publication US20100196953.
Residue numbers refer to the chain shown, from its start.

B1: Ser172Ala porcine trypsin (protein)
chain: IVGGYTCAANSIPYQVSLNSGSHFCGGSLINSQWVVSAAHCYKSRIQVRLGEHNIDVLEGNEQFINAAKIITHPNFNGNTLDNDIMLIKLSSPATLNSRVATVSLPRSCAAAGTECLISGWGNTKSSGSSYPSLLQCLKAPVLSDSSCKSSYPGQITGNMICVGFLEGGKDACQGDSGGPVVCNGQLQGIVSWGYGCAQKNKPGVYTKVCNYVNWIQQTIAAN
B2: native, recombinant porcine trypsin (wildtype porcine pancreatic trypsin isoform I) (protein)
chain: B1 chain with A172S

Tests used:
[1] = system: pre-pro-insulin glargine
[2] = target: pre-pro-insulin (human insulin)
[3] = target: pre-pro-insulin glargine; remark: listed apart in the source
[4] = target: pre-pro-insulin glulisine

| Molecule | by-product formation in pre-pro-insulin processing (HPLC) [1] | Yield (external standard) [%] [2] [%] | des-Thr [area %] [2] [area %] | Σ A0 compounds [area %] [2] [area %] | Σ Arg-Ins [area %] [2] [area %] | Σ pre-Arg-Ins [area %] [2] [area %] | Insulin glargine [area %] [3] [area %] | Yield (external standard) [%] [3] [%] | des-Thr [area %] [3] [area %] | pre-Insulin glargine [area %] [3] [area %] | Σ A0 compounds [area %] [3] [area %] | A0-Arg-insulin glulisine [area %] [4] [area %] | Arg-insulin-glulisine [area %] [4] [area %] | Yield (external standard) [%] [4] [%] |
| --- | --- | --- | --- | --- | --- | --- | --- | --- | --- | --- | --- | --- | --- | --- |
| Serine190Alanine human trypsin variant | High amounts of by-products, mainly B30-des-Thr- and A0-components, are formed during reaction |  |  |  |  |  |  |  |  |  |  |  |  |  |
| B1 |  | 96.5 | 3.3 | 4.1 | 82.5 | 0.9 | 55.5 | 62.9 | 2.6 | 0.4 | 5.1 | 1.2 | 39.2 | 100 |
| B2 |  | 84.2 | 7.2 | 10.7 | 68.8 | 1.4 | 51.1 | 58.1 | 5.6 | 0.5 | 10.9 | 4.7 | 35.8 | 91.6 |
